Measured values taken from patent publication US20250276015A1 (US Dept. of Health and Human Services, published 2025).

What was measured:
[1] = target: T1, purified recombinant HERV-K Env protein (human endogenous retrovirus-K (HERV-K)); test: protein thermal shift assay (DSF); HERV-K Env with 1-3 nM G10
T1 chain: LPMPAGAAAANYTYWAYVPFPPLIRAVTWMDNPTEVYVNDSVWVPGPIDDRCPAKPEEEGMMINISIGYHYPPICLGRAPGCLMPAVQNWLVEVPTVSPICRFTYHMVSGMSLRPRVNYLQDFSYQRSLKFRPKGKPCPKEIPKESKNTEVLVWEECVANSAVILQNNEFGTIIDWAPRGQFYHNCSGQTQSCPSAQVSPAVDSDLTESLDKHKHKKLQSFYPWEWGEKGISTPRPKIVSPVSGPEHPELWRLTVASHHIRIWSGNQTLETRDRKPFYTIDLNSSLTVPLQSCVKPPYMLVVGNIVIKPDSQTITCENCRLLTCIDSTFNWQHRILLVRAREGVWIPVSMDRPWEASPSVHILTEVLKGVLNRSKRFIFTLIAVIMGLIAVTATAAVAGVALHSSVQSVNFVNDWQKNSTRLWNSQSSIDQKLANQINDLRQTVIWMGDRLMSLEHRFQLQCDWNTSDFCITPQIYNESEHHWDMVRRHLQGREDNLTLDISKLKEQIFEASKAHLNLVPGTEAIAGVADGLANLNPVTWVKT

[2] = target: HERV-K Env-green fluorescent protein (GFP) fusion protein in transfected HEK293T cells (human endogenous retrovirus-K (HERV-K)); test: flow cytometry on fixed HEK293T cells transfected with Env-GFP; G10, anti-Myc antibody, Alexa Fluor 647 secondary antibody

B1: HERV-K Env nanobody G10 (VHH)
VHH: EVQLQASGGGFVQPGGSLRLSCAASGSTWYLDAMGWFRQAPGKEREFVSAISDLDDTARYYADSVKGRFTISRDNSKNTVYLQMNSLRAEDTATYYCAYLGATMAETYWGQGTQVTVSS
notes: Recombinant protein made in E. coli; From Hybrigenics antibody phage display; also called nanobody clone G10; G10 nanobody
- shift in Tm [1]: ~2.5 ° C.
- % of cells in the DP quadrant (GFP and Alexa Fluor 647) [2]: 39.4%
